Patent US20260209350A1 (Alector, published 2026)
Numbering of substitutions follows the chain as printed.

T1: mouse TREM2 on cells (mouse, UniProt Q99NH8 19-227)
T1 construct: whole, on cells; Used for the recombinant protein on BWZ/BW cells (with mouse DAP12) and for the native protein on mouse macrophages and dendritic cells; the cell type stands under assay; also called mTREM2; mTrem2
T1 sequence (looked up): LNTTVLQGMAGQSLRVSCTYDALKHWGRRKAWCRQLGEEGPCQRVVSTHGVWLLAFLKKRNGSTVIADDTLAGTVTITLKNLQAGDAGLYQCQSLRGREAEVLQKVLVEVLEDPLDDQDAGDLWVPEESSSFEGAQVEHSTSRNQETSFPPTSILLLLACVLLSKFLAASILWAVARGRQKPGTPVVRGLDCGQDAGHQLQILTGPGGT

T2: human TREM2 Fc fusion protein (human, UniProt Q9NZC2 19-174)
T2 construct: also called hTREM2-Fc; not shown: Fc part not specified
T2 sequence: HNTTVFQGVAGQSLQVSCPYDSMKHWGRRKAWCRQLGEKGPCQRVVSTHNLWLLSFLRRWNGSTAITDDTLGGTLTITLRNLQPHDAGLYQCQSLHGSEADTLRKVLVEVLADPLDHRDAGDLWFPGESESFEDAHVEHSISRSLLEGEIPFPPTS

T3: mouse TREM2 Fc fusion protein (mouse, UniProt Q99NH8 19-171)
T3 construct: also called mTREM2-Fc; not shown: Fc part not specified
T3 sequence (looked up): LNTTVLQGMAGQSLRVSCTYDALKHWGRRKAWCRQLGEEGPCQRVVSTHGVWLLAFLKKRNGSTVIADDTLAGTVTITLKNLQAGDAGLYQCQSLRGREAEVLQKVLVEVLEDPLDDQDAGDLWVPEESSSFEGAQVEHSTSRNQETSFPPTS

T4: human monomeric His tagged TREM2 protein (human, UniProt Q9NZC2 19-174)
T4 construct: also called hTREM2-HIS
T4 sequence: T2 sequence

B1: Ab11 (antibody, human IgG1, V domains shown)
VH: EVQLVQSGAEVKKPGESLKISCKGSGYSFTTYWIGWVRQMPGKGLEWMGIIYPGDSDTRYSPSFQGQVTISADKSISTAYLQWSSLKASDTAMYYCARAGHYDGGHLGMDVWGQGTTVTVSS
VL: EIVLTQSPGTLSLSPGERATLSCRASQSVSSDYLAWYQQKPGQAPRLLIYGASSRATGIPDRFSGSGSGTDFTLTISRLEPEDFAVYYCQQDYSYPWTFGGGTKVEIK
notes: human IgG1
B2: Ab12 (antibody, human IgG1, V domains shown)
VH: EVQLVQSGAEVKKPGESLKISCKGSGYSFTSYWIGWVRQMPGKGLEWMGIIYPGDSDTRYSPSFQGQVTISADKSISTAYLQWSSLKASDTAMYYCARLGHYSGTVSSYGMDVWGQGTTVTVSS
VL: DIQMTQSPSSLSASVGDRVTITCRASQSISSYLNWYQQKPGKAPKLLIYAASSLQSGVPSRFSGSGSGTDFTLTISSLQPEDFATYYCQQEYAVPYTFGGGTKVEIK
notes: human IgG1
B3: Ab13 (antibody, human IgG1, V domains shown)
VH: QVQLVQSGAEVKKPGASVKVSCKASGYTFTSYGISWVRQAPGQGLEWMGWISAYNGNTNYAQKLQGRVTMTTDTSTSTAYMELRSLRSDDTAVYYCARGPSHYYDLAWGQGTLVTVSS
VL: EIVLTQSPATLSLSPGERATLSCRASQSVSSYLAWYQQKPGQAPRLLIYDASNRATGIPARFSGSGSGTDFTLTISSLEPEDFAVYYCQQVSNYPITFGGGTKVEIK
notes: human IgG1
B4: Ab15 (antibody, human IgG1, V domains shown)
VH: QVQLQESGPGLVKPSQTLSLTCTVSGGSISSGGYYWSWIRQHPGKGLEWIGNIYYSGSTVYNPSLKSRVTISVDTSKNQFSLKLSSVTAADTAVYYCARGLYGYGVLDVWGQGTMVTVSS
VL: DIQMTQSPSSLSASVGDRVTITCQASQDISNYLNWYQQKPGKAPKLLIYDASNLETGVPSRFSGSGSGTDFTFTISSLQPEDIATYYCQQFDTYPTFGGGTKVEIK
notes: human IgG1
B5: Ab16 (antibody, human IgG1, V domains shown)
VH: QLQLQESGPGLVKPSETLSLTCTVSGGSISSNSYYWGWIRQPPGKGLEWIGSIYYSGSTYYNPSLKSRVTISVDTSKNQFSLKLSSVTAADTAVYYCARGVLGYGVFDYWGQGTLVTVSS
VL: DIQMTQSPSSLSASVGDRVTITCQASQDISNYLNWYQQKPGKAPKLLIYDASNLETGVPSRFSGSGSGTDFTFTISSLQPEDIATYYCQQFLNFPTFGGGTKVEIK
notes: human IgG1
B6: Ab17 (antibody, human IgG1, V domains shown)
VH: B5 VH
VL: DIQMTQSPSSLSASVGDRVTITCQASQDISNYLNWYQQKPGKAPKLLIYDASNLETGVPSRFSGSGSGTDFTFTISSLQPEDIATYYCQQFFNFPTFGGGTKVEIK
notes: human IgG1
B7: Ab36 (antibody, human IgG1, V domains shown)
VH: QVQLVESGGGVVQPGRSLRLSCAASGFTFSTYGMHWVRQAPGKGLEWVAVIWYDGSNKYYADSVKGRFTISRDNSKNTLYLQMNSLRAEDTAVYYCARGTGAAAASPAFDIWGQGTMVTVSS
VL: EIVLTQSPATLSLSPGERATLSCRASQSVSSYLAWYQQKPGQAPRLLIYDASNRATGIPARFSGSGSGTDFTLTISSLEPEDFAVYYCQQLFDWPTFGGGTKVEIK
notes: human IgG1
B8: Ab62 (antibody, human IgG1, V domains shown)
VH: EVQLVQSGAEVKKPGESLKISCKGSGYSFTSYWIGWVRQMPGKGLEWMGIIYPGDSDTRYSPSFQGQVTISADKSISTAYLQWSSLKASDTAMYYCARAGHYDDWSGLGLDVWGQGTMVTVSS
VL: B3 VL with N53K, V91S, N93V, Y94H, I96Y
notes: human IgG1
B9: Ab64 (antibody, human IgG1, V domains shown)
VH: EVQLVQSGAEVKKPGESLKISCKGSGYSFTSYWIGWVRQMPGKGLEWMGIIYPGDSDTRYSPSFQGQVTISADKSISTAYLQWSSLKASDTAMYYCARLGRWSSGSTAFDIWGQGTMVTVSS
VL: EIVMTQSPATLSVSPGERATLSCRASQSVSSNLAWYQQKPGQAPRLLIYGASTRATGIPARFSGSGSGTEFTLTISSLQSEDFAVYYCQQDDDGYTFGGGTKVEIK
notes: human IgG1
B10: Ab72 (antibody, human IgG1, V domains shown)
VH: QVQLQESGPGLVKPSETLSLTCTVSGGSISSYYWSWIRQPPGKGLEWIGSIYYSGSTNYNPSLKSRVTISVDTSKNQFSLKLSSVTAADTAVYYCARSGTETLFDYWGQGTLVTVSS
VL: DIQMTQSPSSLSASVGDRVTITCQASQDITNYLNWYQQKPGKAPKLLIYDASNLETGVPSRFSGSRSGTDFTFTISSLQPEDIATYYCQQDVNYPPTFGGGTKVEIK
notes: human IgG1
B11: Ab10 (antibody, human IgG1, V domains shown)
VH: B9 VH with Y32N, L99E, G100A, R101G, W102Y, S103D, S104Y, S106E, T107L
VL: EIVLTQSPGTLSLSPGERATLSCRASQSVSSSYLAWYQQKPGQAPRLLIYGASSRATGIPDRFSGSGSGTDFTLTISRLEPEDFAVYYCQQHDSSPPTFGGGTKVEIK
notes: human IgG1
B12: Ab31 (antibody, human IgG1, V domains shown)
VH: QVQLVESGGGVVQPGRSLRLSCAASGFTFSSYGMHWVRQAPGKGLEWVALIWYDGSNKYYADSVKGRFTISRDNSKNTLYLQMNSLRAEDTAVYYCARRRDGYYDEVFDIWGQGTMVTVSS
VL: B10 VL with M4L, T30S, Y32F, R66G, D91P, N93D, Y94L, P96F
notes: human IgG1
B13: Ab33 (antibody, human IgG1, V domains shown)
VH: QVQLVESGGGVVQPGRSLRLSCAASGFTFSSYGMHWVRQAPGKGLEWVAVISYDGSNKYYADSVKGRFTISRDNSKNTLYLQMNSLRAEDTAVYYCARAGGHLFDYWGQGTLVTVSS
VL: B3 VL with V91D, N93S, Y94F, I96P
notes: human IgG1
B14: Ab34 (antibody, human IgG1, V domains shown)
VH: B7 VH with T31S, W52S, G99D, T100R, A102G, A103E, A104Y, A105V, S106D, P107F
VL: B2 VL with E91S, Y92D, A93F, V94P, Y96W
notes: human IgG1
B15: Ab3 (antibody, human IgG1, V domains shown)
VH: QVQLVQSGAEVKKPGSSVKVSCKASGGTFSSYAISWVRQAPGQGLEWMGGIIPIFGTANYAQKFQGRVTITADESTSTAYMELSSLRSEDTAVYYCAREQYHVGMDVWGKGTTVTVSS
VL: B10 VL with T30S, E55A, R66G, D91P, V92F, Y94F, P96Y
notes: human IgG1

Each binder was assayed against T1, mouse TREM2 on cells (assay: FACS, mTrem2 cells).

Going from B1 to B2, the MFI falls from 5500 MFI to 1550 MFI.

First: B3
Second: B4
The MFI of the first is lower: 3250 MFI for the first, 4760 MFI for the second.

First: B5
Second: B6
The MFI of the first is lower: 6380 MFI for the first, 10300 MFI for the second.

Compared with B7, B8 is higher in MFI: 1260 MFI for the first, 4750 MFI for the second.

Compared with B9, B10 is lower in MFI: 8680 MFI for the first, 3750 MFI for the second.

For B11, the MFI was 11500 MFI.

Each binder was assayed against T2, human TREM2 Fc fusion protein (assay: ForteBio or MSD-SET, avid).

B1 and B2 are within 1.5-fold of each other in Kd: 0.934 nM for the first, 1.19 nM for the second.

Going from B3 to B4, the Kd falls from 1.49 nM to 0.605 nM (2.5-fold). The second binds more tightly here.

B5 and B6 are within 1.5-fold of each other in Kd: 1.09 nM for the first, 0.792 nM for the second.

Going from B12 to B13, the Kd rises from 0.451 nM to 1.42 nM (3.1-fold).

Going from B14 to B7, the Kd falls from 0.706 nM to 0.465 nM (1.5-fold). The second binds more tightly here.

B8 and B9 are within 1.5-fold of each other in Kd: 0.772 nM for the first, 0.945 nM for the second.

Compared with B10, B15 is 1.7-fold lower in Kd: 0.839 nM for the first, 0.49 nM for the second.

In the case of B11, the Kd is reported as 0.544 nM.

The binders below were run against T3, mouse TREM2 Fc fusion protein (assay: ForteBio or MSD-SET, avid).

Going from B1 to B2, the Kd rises from 1.19 nM to 7.91 nM (6.6-fold). The first binds more tightly here.

Going from B3 to B4, the Kd rises from 1.71 nM to 2.8 nM (1.6-fold). The first binds more tightly here.

B5 and B6 are within 1.5-fold of each other in Kd: 1.36 nM for the first, 1.67 nM for the second.

B12: no binding.
B13: no binding.
B14: no binding.
B7: no binding.
B15: no binding.

What follows are binders tested against T4, human monomeric His tagged TREM2 protein (assay: ForteBio or MSD-SET, monovalent).

Going from B1 to B2, the Kd falls from 7.2 nM to 2.68 nM (2.7-fold).

Compared with B3, B4 is 22-fold lower in Kd: 66.7 nM for the first, 3.03 nM for the second. The second binds more tightly here.

B5 and B6 are within 1.5-fold of each other in Kd: 2.47 nM for the first, 3.46 nM for the second.

Compared with B12, B13 is 2.3-fold higher in Kd: 6.82 nM for the first, 16 nM for the second.

First: B14
Second: B7
The Kd of the first is 6.7-fold higher: 27 nM for the first, 4.01 nM for the second.

Compared with B8, B9 is 4.6-fold higher in Kd: 14.2 nM for the first, 65.7 nM for the second. The first binds more tightly here.

Compared with B10, B15 is 2.1-fold lower in Kd: 29.4 nM for the first, 14.2 nM for the second. The second binds more tightly here.

For B11, the Kd was 4.79 nM.
